Test results reported in patent US20200347144A1 (SHANGHAI HYAMAB BIOTECH, published 2020).
Substitutions are numbered along the chain they refer to. Values belong to the binder of their own block, whether it stands above or below them.

What was measured:
[1] = biological target: T1, monkey 4-1BB on CHOK1 cells (monkey); assay: FACS, CHOK1-c4-1BB cells; Ab 2 ug/ml
T1 construct: whole, on cells; also called CHOK1-c4-1BB
Source text: (§1) The pIRES plasmid carrying the full-length gene of monkey-derived […] (the preparation method is the same as the preparation method of the pCpC vector carrying the human-derived IgG Fc fragment (hFc) in “Preparation of immunogen A” of the step (1) in Example 1, in which the database accession number of the amino acid sequence of the extracellular region of monkey 4-1BB protein (Phe19-Thr239) is G7PSE7) was transfected into CHOK1 cell line to obtain CHOK1 stable transfected cell line containing monkey 4-1BB (herein referred to as CHOK1-c4-1BB stable cell line). The CHOK1-h4-1BB stable cell line and the CHOK1-c4-1BB stable cell line were expanded and cultivated to 90% confluence in T-75 cell culture flasks. The medium was exhausted, and washed twice with HBSS buffer (Hanks Balanced Salt Solution, purchased from Invitrogen), and then the cells were treated and collected with enzyme-free cell dissociation solution (Versene solution, purchased from Life Technology). The cells were washed twice with HBSS buffer, and after cell counting, the cells were diluted with HBSS buffer to 2×10⁶ cells per ml, and 1% goat serum blocking solution was added, the percentage being the mass percentage. It was incubated on ice for 30 minutes, and then washed twice with HBSS buffer by centrifugation. The collected cells were suspended in FACS buffer (HBSS containing 1% BSA, the percentage was the mass percentage) to 2×10⁶ cells/mL, and 100 μl per well was added to a 96-well FACS reaction plate. The purified 4-1BB antibody test sample obtained in Example 2 was added, 100 microliters per well and incubated on ice for 2 hours. […] It was washed three times with FACS buffer by centrifugation, and 100 μl of fixative [4% (v/v) paraformaldehyde] per well was added to suspend cells, and washed twice with FACS buffer after 10 minutes by centrifugation. The cells were suspended with 100 microliters of FACS buffer, and the results were detected and analyzed with FACS (FACS Calibur, purchased from BD).

[2] = biological target: T2, human 4-1BB, full length, on transfected cells (human, UniProt Q07011 24-255); assay: FACS, CHOK1-h4-1BB cells; Ab 10 ug/ml
T2 construct: whole, on cells; also called CHOK1-h4-1BB
Source text: as §1

[3] = biological target: T2, human 4-1BB, full length, on …; assay: FACS, CHOK1-h4-1BB cells; Ab 0.016 ug/ml
Source text: as §1

[4] = biological target: T3, hFc-tagged human 4-1BB extracellular domain protein (4-1BB-hFc) (human, UniProt Q07011 24-186, limits assumed); assay: ELISA: human 4-1BB-hFc coated at 1.0 µg/mL, antibody titrated, HRP secondary antibody, OD450
T3 construct: also called immunogen A; 4-1BB^ECD-hFc; not shown: human IgG Fc fragment (hFc) of the pCpC vector
Procedure: (§2) The purified immunogen A (4-1BB-hFc), monkey 4-1BB-his, and mouse 4-1BB-his obtained in Example 1 [for the preparation method, see step 1 of Example 1, preparation of immunogen A], of which the extracellular domain of monkey-derived 4-1BB protein (purchased from ACRO biosystems), the extracellular domain of mouse 4-1BB protein (purchased from sino biological) or other immune detection point proteins respectively were diluted with PBS to a final concentration of 1.0 μg/mL, then added with […] per well to 96-well ELISA plate. It was sealed with plastic film and incubated at 4° C. overnight. The next day, the plate was washed twice with the plate-washing solution [PBS containing 0.01% (v/v) Tween20] and blocking solution [PBS containing 0.01% (v/v) Tween 20 and 1% (v/v) BSA] was added and blocked at room temperature for 2 hours. The blocking solution was discarded and 100 μl of the purified 4-1BB antibody obtained in Example 2 was added per well. After incubated at 37° C. for 2 hours, the plate was washed 3 times with a plate-washing solution [PBS containing 0.01% (v/v) Tween20]. A secondary antibody (purchased from Sigma) labeled with HRP (horseradish peroxidase) was added, and after incubated at 37° C. for 2 hours, the plate was washed 3 times with a plate-washing solution [PBS containing 0.01% (v/v) Tween20]. 100 μl of TMB substrate was added per well. After incubated for 30 minutes at room temperature, 100 μl of stop buffer (1.0N HCl) was added per well. The A450 nm values were read using an ELISA plate reader (SpectraMax 384plus, Molecular Device).

[5] = biological target: T1, monkey 4-1BB on CHOK1 cells; assay: FACS, CHOK1-c4-1BB cells; Ab 0.00013 ug/ml
Source text: as §1

[6] = biological target: T2, human 4-1BB, full length, on …; assay: FACS, CHOK1-h4-1BB cells; Ab 0.0032 ug/ml
Source text: as §1

[7] = biological target: T1, monkey 4-1BB on CHOK1 cells; assay: FACS, CHOK1-c4-1BB cells; Ab 10 ug/ml
Source text: as §1

[8] = biological target: T1, monkey 4-1BB on CHOK1 cells; assay: FACS, CHOK1-c4-1BB cells; Ab 0.4 ug/ml
Source text: as §1

[9] = biological target: T2, human 4-1BB, full length, on …; assay: FACS, CHOK1-h4-1BB cells; Ab 0.4 ug/ml
Source text: as §1

[10] = biological target: T2, human 4-1BB, full length, on …; assay: FACS, CHOK1-h4-1BB cells; Ab 2 ug/ml
Source text: as §1

[11] = biological target: T2, human 4-1BB, full length, on …; assay: FACS on CHOK1-h4-1BB cells, Alexa 488 secondary antibody, average fluorescence intensity
Source text: as §1

[12] = biological target: T2, human 4-1BB, full length, on …; assay: FACS, CHOK1-h4-1BB cells; Ab 0.00064 ug/ml
Source text: as §1

[13] = biological target: T3, hFc-tagged human 4-1BB extracellular …; assay: ELISA, coated human 4-1BB-hFc; Ab 10 ug/ml
Procedure: as §2

[14] = biological target: T3, hFc-tagged human 4-1BB extracellular …; assay: ELISA, coated human 4-1BB-hFc; Ab 0.016 ug/ml
Procedure: as §2

T2 sequence (Q07011 24-255): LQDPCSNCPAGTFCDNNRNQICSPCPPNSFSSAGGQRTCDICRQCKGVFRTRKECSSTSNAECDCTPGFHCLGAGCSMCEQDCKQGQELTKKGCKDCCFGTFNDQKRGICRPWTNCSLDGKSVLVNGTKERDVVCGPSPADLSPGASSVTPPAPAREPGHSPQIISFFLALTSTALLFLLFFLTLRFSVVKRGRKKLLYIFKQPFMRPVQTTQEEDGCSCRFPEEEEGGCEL

B1: 113F6C6 (antibody, V domains shown)
VH: QVQLVESGGGVVQPGRSLRLSCAASGLTFSSYGMHWVRQAPGKGLEWVAVIWYDGSNKYYADSVKGRFTISRDNSKNTLYLQMNSLRAEDTAVYYCAREEVLWFGELSYNYYYGMDVWGQGTTVTVSS
VL: DIQMTQSPSSLSASVGDRVTITCRASQGISNYLAWYQQKPGKVPKLLIYAASTLQSGVPSRFSGSGSGTDFTLTISSLQPEDVATYYCQKYNSVPLTFGGGTKVEIK
notes: also called 4-1BB fully human antibody 113F6C6; 113F6F6
average fluorescence intensity [1]: 438 MFI | average fluorescence intensity [2]: 405 MFI | average fluorescence intensity [3]: 46.2 MFI | EC50 (read off the curve) [4]: ~0.02 µg/mL | average fluorescence intensity [5]: 2.9 MFI | average fluorescence intensity [6]: 13.7 MFI | average fluorescence intensity [7]: 426 MFI | average fluorescence intensity [8]: 357 MFI | average fluorescence intensity [9]: 323 MFI | average fluorescence intensity [10]: 477 MFI | EC50 (read off the curve) [11]: ~0.1 µg/mL | average fluorescence intensity [12]: 4.8 MFI

B4: 57B3D10 (antibody, V domains shown)
VH: QVQLQESGPGLVKPSETLSLTCTVSGGSISSYYWSWIRQPPGKGLEWIGYIYYSGSTNYNPSLKSRVTISVDTSKSQFSLKLTSVTAADTAVYYCAKDSDYYGSGSYSYWYFDLWGRGTLVTVSS
VL: EIVMTQSPATLSVSPGERATLSCRASQSVSSNLAWYQQKPGQAPRLLIYGASTRAPGIPARFSGSGSGTEFTLTISSLQSEDFAVYYCQQYNNWPLTFGGGTKVEIK
notes: also called 4-1BB fully human antibody 57B3D10
average fluorescence intensity [1]: 567 MFI | average fluorescence intensity [2]: 538 MFI | average fluorescence intensity [3]: 148 MFI | EC50 (read off the curve) [4]: ~0.02 µg/mL | average fluorescence intensity [5]: 3.3 MFI | average fluorescence intensity [6]: 42.7 MFI | average fluorescence intensity [7]: 581 MFI | average fluorescence intensity [8]: 549 MFI | average fluorescence intensity [9]: 490 MFI | average fluorescence intensity [10]: 555 MFI | EC50 (read off the curve) [11]: ~0.05 µg/mL | average fluorescence intensity [12]: 12.5 MFI

B6: 52F4G2 (antibody, V domains shown)
VH: QVQLQESGPGLVKPSETLSLTCAVSGYSISSGYYWGWIRQPPGKGLEWIGSIFHSGSSYYNPSLKSRVTISVDTSKNQFSLKLRSVTAADTAVYYCARESSGWNCFDYWGQGTLVTVSS
VL: DIQMTQSPSTLSASVGDRVTITCRASQTISTWLAWYQQKPGKAPKLLIYKASNLESGVPSRFSGSGSGTEFTLTISSLQPDDFATYYCQQYNSYSITFGQGTRLEIK
OD450 nm [13]: 3.06 OD450 nm | average fluorescence intensity [1]: 679 MFI | average fluorescence intensity [2]: 615 MFI | average fluorescence intensity [3]: 141 MFI | EC50 (read off the curve) [4]: ~0.007 µg/mL | average fluorescence intensity [5]: 3.2 MFI | average fluorescence intensity [6]: 38.3 MFI | average fluorescence intensity [7]: 736 MFI | average fluorescence intensity [8]: 469 MFI | average fluorescence intensity [9]: 584 MFI | average fluorescence intensity [10]: 600 MFI | EC50 (read off the curve) [11]: ~0.05 µg/mL | OD450 nm [14]: 2.51 OD450 nm | average fluorescence intensity [12]: 11.7 MFI

B7: 23G3B8 (antibody, V domains shown)
VH: B6 VH with G26A, S58N, T74P, R84S, A88V, W103Y
VL: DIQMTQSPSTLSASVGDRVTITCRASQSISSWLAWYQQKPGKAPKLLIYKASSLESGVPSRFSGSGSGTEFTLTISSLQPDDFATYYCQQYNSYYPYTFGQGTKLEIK
OD450 nm [13]: 2.78 OD450 nm | average fluorescence intensity [1]: 586 MFI | average fluorescence intensity [3]: 126 MFI | EC50 (read off the curve) [4]: ~0.02 µg/mL | average fluorescence intensity [5]: 3.4 MFI | average fluorescence intensity [6]: 38.5 MFI | average fluorescence intensity [7]: 595 MFI | average fluorescence intensity [8]: 392 MFI | average fluorescence intensity [9]: 541 MFI | average fluorescence intensity [10]: 619 MFI | OD450 nm [14]: 1.1 OD450 nm | average fluorescence intensity [12]: 11.2 MFI

Results, then the binder that gave them:

OD450 nm [13]: 2.8 OD450 nm | average fluorescence intensity [1]: 597 MFI | average fluorescence intensity [2]: 2280 MFI | average fluorescence intensity [3]: 101 MFI | EC50 (read off the curve) [4]: ~0.02 µg/mL | average fluorescence intensity [5]: 3 MFI | average fluorescence intensity [6]: 26.7 MFI | average fluorescence intensity [7]: 601 MFI | average fluorescence intensity [8]: 466 MFI | average fluorescence intensity [9]: 1520 MFI | average fluorescence intensity [10]: 1920 MFI | OD450 nm [14]: 1.47 OD450 nm | average fluorescence intensity [12]: 8.9 MFI
B2: 289B6G6 (antibody, V domains shown)
VH: QVQLQESGPGLVRPSETLSLTCAVSGYSISSGYYWGWIRQPPGKGLEWIGSIFHSGNTYYNPSLKSRVIVSGDTSKNQFSLKLSSVTAADTAVYYCTRESSGFNVFDIWGQGTMVTVSS
VL: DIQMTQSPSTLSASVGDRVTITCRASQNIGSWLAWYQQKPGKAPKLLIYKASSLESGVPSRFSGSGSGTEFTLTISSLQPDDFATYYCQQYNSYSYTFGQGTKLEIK

OD450 nm [13]: 2.73 OD450 nm | average fluorescence intensity [1]: 688 MFI | average fluorescence intensity [2]: 527 MFI | average fluorescence intensity [3]: 125 MFI | EC50 (read off the curve) [4]: ~0.03 µg/mL | average fluorescence intensity [5]: 2.9 MFI | average fluorescence intensity [6]: 34.4 MFI | average fluorescence intensity [7]: 735 MFI | average fluorescence intensity [8]: 408 MFI | average fluorescence intensity [9]: 508 MFI | average fluorescence intensity [10]: 540 MFI | EC50 (read off the curve) [11]: ~0.05 µg/mL | OD450 nm [14]: 0.99 OD450 nm | average fluorescence intensity [12]: 10.8 MFI
B3: 118F3A2 (antibody, V domains shown)
VH: QVQLQQWGAGLLKPSETLSLTCGVYGGSFSTNYWSWIRQSPGKGLEWIGEINHSGNTEYNPSLKSRLTISIDTSKNQFSLKLTSVTAADTAVYYCARMGYHSPSFDFWGQGVLVTVSS
VL: KIVMTQSPATLSVSPGERATLPCRVSQGIGSNLAWYQQKPGQAPRLLIYGASTRATGVPARFSGSGSGSEFTLTISSLQSEDLALYYCQQYNNWPLTFGGGTKVEIK

OD450 nm [13]: 2.78 OD450 nm | average fluorescence intensity [1]: 1350 MFI | average fluorescence intensity [2]: 1080 MFI | average fluorescence intensity [3]: 49.1 MFI | EC50 (read off the curve) [4]: ~0.02 µg/mL | average fluorescence intensity [5]: 3.2 MFI | average fluorescence intensity [6]: 17.8 MFI | average fluorescence intensity [7]: 1470 MFI | average fluorescence intensity [8]: 944 MFI | average fluorescence intensity [9]: 636 MFI | average fluorescence intensity [10]: 1080 MFI | OD450 nm [14]: 1.25 OD450 nm | average fluorescence intensity [12]: 5.1 MFI
B5: 119B6G5 (antibody, V domains shown)
VH: EVQLLESGGGLVQPGGSLRLSCAASGFTFSNYAMSWVRQGPGKGLEWVSTIIGSGDSTYYTDSVKGRFTISRDNSKNTLFLQMNSLRAEDTAVYYCARDKSGWYYFDYWGQGTLVTVSS
VL: DIQMTQSPSTLSASVGDRVTITCRASQSISNWLAWYQQKPGKAPKLLIYKASSLESGVPSRFSGSGSGTEFTLTISSLQPDDFATYYCQQYNDYFPITFGQGTRLEIK
